From patent US20250215467A1, “L-THREONINE TRANSALDOLASES AND USES THEREOF” (University of Delaware, priority 2022, published 2025)

Columns and labels:
wild-type E. coli MG1655 = assay: β-OH-nsAA biosynthesis during aerobic fermentation in wild-type E. coli MG1655; type: cell-based, Escherichia coli; conditions: SUMO-tagged construct, 1 mM 3, 20 h
Procedure: (§1) Metabolites of interest were quantified via high-performance liquid chromatography (HPLC) using an Agilent 1260 Infinity model equipped with a Zorbax Eclipse Plus-C18 column. To quantify aldehyde and β-OH-nsAAs, an initial mobile phase of solvent A/B=95/5 was used (solvent A, water+0.1% TFA; solvent B, acetonitrile+0.1% TFA) and maintained for 5 min. A gradient elution was performed (A/B) as follows: gradient from 95/5 to 50/50 for 5-12 min, gradient from 50/50 to 0/100 for 12-13 min, and gradient from 0/100 to 95/5 for 13-14 min. A flow rate of 1 mL min-1 was maintained, and absorption was monitored at 210, 250 and 280 nm.
(§2) For screening TTA activity in aerobically growing cells, we inoculated strains transformed with plasmids expressing TTAs into 300 μL volumes of MOPS EZ Rich media in a 96-deep-well plate with appropriate antibiotic added to maintain plasmids (50 μg/mL kanamycin (Kan)). Cultures were incubated at 37° C. with shaking at 1000 RPM and an orbital radius of 1.25 mm until an OD600 of 0.5-0.8 was reached. OD600 was measured using a SPECTRAMAX® i3× plate reader. At this point, the TTAs were induced with addition of 0.2 nM aTc for TTA expression. Then, 2 h following induction of the TTAs, 1 mM aldehyde was added to the culture. Cultures were then incubated over 20 h at 30° C. with metabolite concentration measured via supernatant sampling and submission to HPLC. […]

E. coli RARE strain = assay: β-OH-nsAA biosynthesis during aerobic fermentation in E. coli RARE strain; type: cell-based, Escherichia coli; conditions: 1 mM 3, 20 h
Procedure: as §1, §2

[1] = TTA-ADH coupled assay, screen of purified TTAs on 2-nitro-benzaldehyde; type: biochemical; conditions: substrate 3, TTA-ADH coupled assay
Procedure: High-throughput screening of purified TTAs was performed with a TTA-ADH coupled assay using purified TTA and commercially available alcohol dehydrogenase from S. cerevisiae purchased from MilliporeSigma. Aldehyde stocks were prepared in 50-100 mM solutions in DMSO or acetonitrile. Reaction mixtures were prepared in a 96-well plate with 100 μL of 100 mM phosphate buffer pH 7.5, 0.5 mM NADH, 0.4 mM PLP, 15 mM MgCl2, and 100 mM L-Thr with the addition of 0.25 mM to 1 mM aldehyde depending on the background absorbance at 340 nm (Table 4), 10 U ScADH, and 0.25 μM purified TTA unless otherwise specified. Reactions were initiated with the addition of enzyme. […] The following controls were included for every assay: reaction mixture without aldehyde, without TTA, and without enzyme (TTA or ADH). Rates were calculated by identifying the linear region at the beginning of the kinetic run and converting the depletion in absorbance to the depletion of mM NADH using an NADH standard curve.
Once purified, we identified the putative TTAs with high activity and further characterized them for their L-Thr affinity and substrate scope. We first screened each purified enzyme using the TTA-ADH coupled assay with 2-nitro-benzaldehyde, 3, the best performing substrate from the screen of ObiH that was not a substrate of the ScADH. […] With this evidence as well as well-aligned, predicted AlphaFold structures, we assumed the impact of the SUMO tag would be minimal for all TTAs screened and moved forward with additional enzyme characterization.

B1: PbTTA: L-threonine transaldolase, SEQ ID NO: 16, Parachlamydiales bacterium, MBN2478762.1 (protein, listed as Parachlamydiales bacterium)
chain: METSLKDFETILHLINKEEIDSNDTIHMTANENIMSKLSKHYLKSTLSYRYHVGMFDDQKNLTVSRSCLIKNSLMLRCLSPIFLLEQQAREYVKKMFFAEYADFRPLSGMHTVFCILSTLTKPNDRVYVFTTESVGHAATVSLLKSLGRKVSFIPFCEKKLDIDLEKLSKQILIEKPNAILFDFGTPFYPLPIREIREIVGNDVKMIYDASHVLGLIAGGQFQNPLLEGCDVLIGNTHKTFPGPQKGMILYKNKSLGKEIATEIFKSAISAQHTHHAIALYVTIIEMYIHGKEYANQIIKNNHALSQALINEGFKIFKRKNQFSLSHMIAITGDFPIDHHVACADLHNSNISTNSRILYDFPAVRIGVQEVTRKGMKEKDMVQLAKFFKEIILDRKNISSKIKEFNNKFNSIEYSLDEIYEKLF
β-OH-nsAA titer (wild-type E. coli MG1655; MG1655, 100 mM L-Thr supplemented): 0.47 ± 0.04 mM
β-OH-nsAA titer (wild-type E. coli MG1655; MG1655, physiological levels of L-Thr): 0.09 ± 0.01 mM
β-OH-nsAA titer (E. coli RARE strain; 100 mM L-Thr): 0.61 ± 0.04 mM
β-OH-nsAA titer (E. coli RARE strain; natural L-Thr levels): 0.13 ± 0.01 mM
activity on 2-nitro-benzaldehyde relative to ObiH [1]: comparable to or better than ObiH
